# Test results taken from the Immune Epitope Database (IEDB).
# Key:
# HLA-C*14:02 = assay: IEDB peptide-MHC binding, purified MHC/direct/fluorescence; filed as Kd, often an IC50 or EC50 that approximates it; ≥ and ≤ were set here for values at or beyond the usual limits of such assays
# HLA-A*24:03 [1] = assay: IEDB peptide-MHC binding, purified MHC/competitive/fluorescence; filed as Kd, often an IC50 or EC50 that approximates it; ≥ and ≤ were set here for values at or beyond the usual limits of such assays; conditions: source organism: Escherichia coli str. K-12 substr. MG1655
# HLA-A*24:02 = assay: as above
# HLA-C*05:01 = assay: IEDB peptide-MHC binding, purified MHC/direct/fluorescence; filed as Kd, often an IC50 or EC50 that approximates it; ≥ and ≤ were set here for values at or beyond the usual limits of such assays; conditions: source organism: Variola virus
# HLA-B*07:02 = assay: IEDB peptide-MHC binding, purified MHC/competitive/radioactivity; filed as Kd, often an IC50 or EC50 that approximates it; ≥ and ≤ were set here for values at or beyond the usual limits of such assays; conditions: source organism: Vaccinia virus WR
# HLA-B*35:01 = assay: as above; conditions: source organism: Vaccinia virus WR
# HLA-B*51:01 [2] = assay: as above; conditions: source organism: Vaccinia virus WR
# HLA-B*53:01 = assay: as above; conditions: source organism: Vaccinia virus WR
# HLA-B*54:01 = assay: as above; conditions: source organism: Vaccinia virus WR
# HLA-A*02:01 = assay: IEDB peptide-MHC binding, purified MHC/direct/fluorescence; filed as Kd, often an IC50 or EC50 that approximates it; ≥ and ≤ were set here for values at or beyond the usual limits of such assays
# HLA-A*02:03 = assay: as above
# HLA-A*02:11 = assay: as above
# HLA-A*02:12 = assay: as above
# HLA-A*02:16 = assay: as above
# HLA-A*02:19 = assay: as above
# HLA-A*03:01 = assay: as above
# HLA-A*23:01 = assay: as above; conditions: source organism: Toxoplasma gondii
# HLA-A*24:03 [3] = assay: as above
# HLA-A*26:01 = assay: as above
# HLA-A*29:02 = assay: as above
# HLA-A*68:02 = assay: as above; conditions: source organism: Toxoplasma gondii
# HLA-A*69:01 = assay: as above
# HLA-B*15:01 = assay: as above
# HLA-B*15:17 = assay: as above
# HLA-B*18:01 = assay: as above
# HLA-B*27:03 = assay: as above
# HLA-B*39:01 = assay: as above
# HLA-B*46:01 = assay: as above
# HLA-B*51:01 [4] = assay: as above
# HLA-B*57:01 = assay: as above
# HLA-C*07:02 = assay: as above; conditions: source organism: Cryptosporidium parvum Iowa II
# HLA-C*15:02 = assay: as above
# HLA-C*06:02 = assay: as above; conditions: source organism: Cryptosporidium parvum
# HLA-C*08:02 = assay: as above; conditions: source organism: Vaccinia virus WR
# HLA-C*12:03 = assay: as above; conditions: source organism: Vaccinia virus WR
# HLA-B*51:01 [5] = assay: IEDB peptide-MHC binding, purified MHC/competitive/fluorescence; filed as Kd, often an IC50 or EC50 that approximates it; ≥ and ≤ were set here for values at or beyond the usual limits of such assays; conditions: source organism: Vaccinia virus WR
# HLA-C*03:03 = assay: IEDB peptide-MHC binding, purified MHC/direct/fluorescence; filed as Kd, often an IC50 or EC50 that approximates it; ≥ and ≤ were set here for values at or beyond the usual limits of such assays; conditions: source organism: Campylobacter jejuni subsp. jejuni 81-176
# [6] = source organism: Toxoplasma gondii
# [7] = source organism: Staphylococcus aureus subsp. aureus N315
# [8] = source organism: Cryptosporidium parvum
# [9] = source organism: Toxoplasma gondii RH
# [10] = source organism: Camelpox virus M-96
# [11] = source organism: Campylobacter jejuni subsp. jejuni 81116
sequence,measurement,setting,value
AYPELACAV,Kd,HLA-C*14:02; source organism: Escherichia coli str. K-12 substr. MG1655,≤ 0.001 µM
same,Kd,HLA-A*24:03 [1],0.406 µM
KWMMAMRYPI,Kd,HLA-A*24:02; source organism: Influenza A virus (A/chicken/Fujian/25/00(H9N2)),0.0032 µM
LPMIIGEPI,Kd,HLA-C*05:01,≥ 20 µM
same,Kd,HLA-B*07:02,0.000255 µM
same,Kd,HLA-B*35:01,0.0645 µM
same,Kd,HLA-B*51:01 [2],0.00117 µM
same,Kd,HLA-B*53:01,0.0056 µM
same,Kd,HLA-B*54:01,0.00157 µM
LPPVVPPLI,Kd,HLA-A*02:01; [6],≥ 20 µM
same,Kd,HLA-A*02:03; [6],≥ 20 µM
same,Kd,HLA-A*02:11; [6],≥ 20 µM
same,Kd,HLA-A*02:12; [6],≥ 20 µM
same,Kd,HLA-A*02:16; [6],≥ 20 µM
same,Kd,HLA-A*02:19; [6],≥ 20 µM
same,Kd,HLA-A*03:01; [6],≥ 20 µM
same,Kd,HLA-A*23:01,≥ 20 µM
same,Kd,HLA-A*24:03 [3]; [6],≥ 20 µM
same,Kd,HLA-A*26:01; [6],≥ 20 µM
same,Kd,HLA-A*29:02; [6],≥ 20 µM
same,Kd,HLA-A*68:02,≥ 20 µM
same,Kd,HLA-A*69:01; [6],≥ 20 µM
same,Kd,HLA-B*15:01; [6],≥ 20 µM
same,Kd,HLA-B*15:17; [6],≥ 20 µM
same,Kd,HLA-B*18:01; [6],≥ 20 µM
same,Kd,HLA-B*27:03; [6],≥ 20 µM
same,Kd,HLA-B*39:01; [6],≥ 20 µM
same,Kd,HLA-B*46:01; [6],≥ 20 µM
same,Kd,HLA-B*51:01 [4]; [6],0.201 µM
same,Kd,HLA-B*57:01; [6],≥ 20 µM
NYKWWWFSF,Kd,HLA-C*07:02,0.181 µM
same,Kd,HLA-A*24:02; source organism: Cryptosporidium parvum Iowa II,0.0023 µM
RTQAVIYAF,Kd,HLA-A*24:03 [3]; source organism: Bacillus anthracis,0.0013 µM
same,Kd,HLA-C*14:02; [7],0.133 µM
same,Kd,HLA-C*15:02; [7],1.4 µM
RYMYIYLFI,Kd,HLA-A*24:03 [3]; [8],0.004 µM
same,Kd,HLA-C*06:02,≥ 20 µM
same,Kd,HLA-A*24:02; [8],0.0036 µM
RYSKKFKPEI,Kd,HLA-A*24:02; source organism: Influenza A virus (A/Swine/Indiana/9K035/99 (H1N2)),0.033 µM
THADAHTQL,Kd,HLA-A*02:01; [9],≥ 20 µM
same,Kd,HLA-A*02:03; [9],≥ 20 µM
same,Kd,HLA-A*02:11; [9],≥ 20 µM
same,Kd,HLA-A*02:12; [9],≥ 20 µM
same,Kd,HLA-A*02:16; [9],≥ 20 µM
same,Kd,HLA-A*02:19; [9],≥ 20 µM
same,Kd,HLA-A*03:01; [9],≥ 20 µM
same,Kd,HLA-A*24:03 [3]; [9],≥ 20 µM
same,Kd,HLA-A*26:01; [9],≥ 20 µM
same,Kd,HLA-A*29:02; [9],≥ 20 µM
same,Kd,HLA-A*69:01; [9],≥ 20 µM
same,Kd,HLA-B*15:01; [9],≥ 20 µM
same,Kd,HLA-B*15:17; [9],≥ 20 µM
same,Kd,HLA-B*18:01; [9],≥ 20 µM
same,Kd,HLA-B*27:03; [9],≥ 20 µM
same,Kd,HLA-B*46:01; [9],≥ 20 µM
same,Kd,HLA-B*51:01 [4]; [9],≥ 20 µM
same,Kd,HLA-B*57:01; [9],≥ 20 µM
YLYETYHLI,Kd,HLA-A*02:01; [10],0.002 µM
same,Kd,HLA-A*69:01; [10],0.0038 µM
same,Kd,HLA-C*08:02,≥ 20 µM
same,Kd,HLA-C*12:03,0.155 µM
same,Kd,HLA-B*51:01 [5],4 µM
YTASVVAAY,Kd,HLA-C*14:02; source organism: Homo sapiens,0.098 µM
same,Kd,HLA-C*15:02; source organism: Homo sapiens,≥ 20 µM
YTNYPFLFF,Kd,HLA-A*02:01; [11],≥ 20 µM
same,Kd,HLA-A*02:03; [11],≥ 20 µM
same,Kd,HLA-A*02:12; [11],≥ 20 µM
same,Kd,HLA-A*02:16; [11],≥ 20 µM
same,Kd,HLA-A*02:19; [11],≥ 20 µM
same,Kd,HLA-A*03:01; [11],≥ 20 µM
same,Kd,HLA-B*27:03; [11],≥ 20 µM
same,Kd,HLA-B*39:01; [11],≥ 20 µM
same,Kd,HLA-B*51:01 [4]; [11],≥ 20 µM
same,Kd,HLA-C*03:03,0.159 µM
same,Kd,HLA-C*15:02; source organism: Campylobacter jejuni subsp. jejuni 81-176,0.025 µM
